The stoichiometry N is a count of units in the complex or per binding partner.

The source of these data is publication PMC2757638.

The assay deals with recombinant Cse4 (S. cerevisiae) (UniProt P36012). Nature of the assay: SEC. For orientation: In gel filtration, larger molecules generally elute earlier.

Consider “recombinant Cse4 (from UniProt P36012 1-229) (natural protein; other documents disagree on this pair)”, for which the stoichiometry N is 2.
